Legend:
[1] = target: T1, human galectin-9 on the cell surface (CRL-2134 cell line; patient tumor-derived cells) (human, UniProt O00182 1-355); assay: cell based saturation curve, surface staining of CRL-2134 cells (fraction of positive cells)
T1 construct: whole, on cells

[2] = target: T2, human galectin-9 CRD1 domain (human, UniProt O00182 15-148, limits assumed); assay: bead based binding to human galectin-9 CRD1 and CRD2 domains
T2 construct: domain: CRD1; also called CRD1 domain of galectin-9 protein

[3] = target: T3, human galectin-9 CRD2 domain (human, UniProt O00182 227-355, limits assumed); assay: bead based binding
T3 construct: domain: CRD2; also called CRD2 domain of galectin-9

[4] = target: T4, mouse galectin-9 CRD2 domain (mouse, UniProt O08573 225-353, limits assumed); assay: bead based binding
T4 construct: domain: CRD2; also called mouse CRD2 domain

[5] = target: T5, rat galectin-9 CRD2 domain (rat, UniProt P97840 226-354, limits assumed); assay: bead based binding
T5 construct: domain: CRD2; also called rat CRD2 domain

[6] = target: T6, cynomolgus galectin-9 CRD2 domain (cynomolgus monkey, UniProt A0A7N9IHL9 227-355); assay: bead based binding
T6 construct: domain: CRD2; also called cynomolgus CRD2 domain; CRD2 domain of cynomolgus monkey galectin-9

[7] = target: T3, human galectin-9 CRD2 domain; assay: ELISA, antibody titrated over immobilized Galectin-9 CRD2
[8] = target: T4, mouse galectin-9 CRD2 domain; assay: SPR, One Step method on a Pioneer SPR

T3 sequence (O00182 227-355 limits assumed): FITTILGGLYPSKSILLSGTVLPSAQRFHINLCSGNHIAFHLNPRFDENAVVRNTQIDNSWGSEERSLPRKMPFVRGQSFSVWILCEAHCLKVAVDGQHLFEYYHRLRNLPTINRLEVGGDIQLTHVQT
T4 sequence (O08573 225-353 limits assumed): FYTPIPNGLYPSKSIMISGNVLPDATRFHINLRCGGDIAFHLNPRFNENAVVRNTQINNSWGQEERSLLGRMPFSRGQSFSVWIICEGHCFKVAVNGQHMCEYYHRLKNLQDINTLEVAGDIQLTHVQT
T1 sequence (O00182 whole entry): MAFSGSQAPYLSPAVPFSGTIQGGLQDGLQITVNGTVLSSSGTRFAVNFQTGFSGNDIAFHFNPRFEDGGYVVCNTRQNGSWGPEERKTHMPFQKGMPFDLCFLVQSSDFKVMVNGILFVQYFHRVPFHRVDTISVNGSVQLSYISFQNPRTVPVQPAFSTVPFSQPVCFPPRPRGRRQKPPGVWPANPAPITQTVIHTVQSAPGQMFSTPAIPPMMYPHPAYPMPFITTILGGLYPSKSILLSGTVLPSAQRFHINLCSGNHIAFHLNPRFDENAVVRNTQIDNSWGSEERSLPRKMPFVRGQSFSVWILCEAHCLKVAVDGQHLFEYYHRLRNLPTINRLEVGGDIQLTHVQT
T2 sequence (O00182 15-148 limits assumed): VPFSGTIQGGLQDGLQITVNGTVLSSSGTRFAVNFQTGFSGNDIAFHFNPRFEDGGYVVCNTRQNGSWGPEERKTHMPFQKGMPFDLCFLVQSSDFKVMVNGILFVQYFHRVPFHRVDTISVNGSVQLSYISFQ
T5 sequence (P97840 226-354 limits assumed): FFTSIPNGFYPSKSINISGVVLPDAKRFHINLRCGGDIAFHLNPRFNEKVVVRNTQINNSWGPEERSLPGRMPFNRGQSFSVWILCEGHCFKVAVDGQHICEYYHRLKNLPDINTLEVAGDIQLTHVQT

Kd [1]	binding result [2]	Kd [3]	Kd [4]	Kd [5]	Kd [6]	Kd [7]	Kd [8]	Binder
2.9 nM	no binding	0.18 nM	0.3 nM	0.35 nM	0.3 nM	0.45 nM	3.05 nM	G9.2-17 mIgG1 (mouse IgG1 version of G9.2-17) (antibody, V domains shown, Mouse IgG1 backbone; also called mIgG1 G9.2-17; G9.2-17 IgG1 mouse mAb) VH: EVQLVESGGGLVQPGGSLRLSCAASGFTVSSSSIHWVRQAPGKGLEWVAYISSSSGYTYYADSVKGRFTISADTSKNTAYLQMNSLRAEDTAVYYCARYWSYPSWWPYRGMDYWGQGTLVTVSS VL: DIQMTQSPSSLSASVGDRVTITCRASQSVSSAVAWYQQKPGKAPKLLIYSASSLYSGVPSRFSGSRSGTDFTLTISSLQPEDFATYYCQQSSTDPITFGQGTKVEIKR
0.41 nM	no binding	0.15 nM	0.3 nM	–	–	0.42 nM	1.8 nM	anti-Galectin-9 antibody G9.2-17 (IgG4) (antibody, V domains shown, also called G9.2-17 (Ig4); G9.2-17 hIgG4 Fab Arm Exchange mut) VH: EVQLVESGGGLVQPGGSLRLSCAASGFTVSSSSIHWVRQAPGKGLEWVAYISSSSGYTYYADSVKGRFTISADTSKNTAYLQMNSLRAEDTAVYYCARYWSYPSWWPYRGMDYWGQGTLVTVSS VL: DIQMTQSPSSLSASVGDRVTITCRASQSVSSAVAWYQQKPGKAPKLLIYSASSLYSGVPSRFSGSRSGTDFTLTISSLQPEDFATYYCQQSSTDPITFGQGTKVEIKR
